Residue numbers refer to the chain shown, from its start. In names and notes the source's numbering stands. Entries after “also recorded” stand apart in the source; their conditions may differ.
B1: Lyn^G2A-GFP: Nt-mutant (G2A) Lyn-GFP (protein, UniProt P07948 2-512, looked up, variant G2A)
Tyrosine-protein kinase Lyn: ACIKSKGKDSLSDDGVDLKTQPVRNTERTIYVRDPTSNKQQRPVPESQLLPGQRFQTKDPEEQGDIVVALYPYDGIHPDDLSFKKGEKMKVLEEHGEWWKAKSLLTKKEGFIPSNYVAKLNTLETEEWFFKDITRKDAERQLLAPGNSAGAFLIRESETLKGSFSLSVRDFDPVHGDVIKHYKIRSLDNGGYYISPRITFPCISDMIKHYQKQADGLCRRLEKACISPKPQKPWDKDAWEIPRESIKLVKRLGAGQFGEVWMGYYNNSTKVAVKTLKPGTMSVQAFLEEANLMKTLQHDKLVRLYAVVTREEPIYIITEYMAKGSLLDFLKSDEGGKVLLPKLIDFSAQIAEGMAYIERKNYIHRDLRAANVLVSESLMCKIADFGLARVIEDNEYTAREGAKFPIKWTAPEAINFGCFTIKSDVWSFGILLYEIVTYGKIPYPGRTNADVMTALSQGYRMPRVENCPDELYDIMKMCWKEKAEERPTFDYLQSVLDDFYTATEGQYQQQP
modifications: GFP fusion
B2: Lyn^G2P-GFP: Nt-mutant (G2P) Lyn-GFP (protein, UniProt P07948 2-512, looked up, variant G2P)
Tyrosine-protein kinase Lyn: B1 Tyrosine-protein kinase Lyn with A1P
modifications: C-terminal GFP fusion

Columns and labels:
[1] = tested on: DLD-1 Flp-In T-REx and Lyn KO cells; assay: Level of Lyn / Lyn-GFP variants after NMT1/2 and DCAF10 siRNA, Western blot; format: cell-based, human; conditions: DLD-1, 72 h siRNA
Excerpt: To further investigate the role of the Nt-amino acid and its modification in DCAF10 recognition and DCAF10-dependent ubiquitination, we used the CRISPR/Cas9 technique to knock out Lyn in DLD-1 cell lines with T-REx Flp-In background (DLD-1 Lyn KO Flp-In T-REx) (Supplementary Fig. 7a–c). We then integrated Lyn^WT-GFP and two Nt-mutants (Lyn^G2A-GFP and Lyn^G2P-GFP) under a doxycycline-inducible promoter into the Flp-In cassette. Alanine (G2A) is expected to be efficiently acetylated by NatA, generating an Nt-acetylated Lyn mutant. Conversely, the proline (G2P) mutant, is expected not to be acetylated and may retain a free N-terminus[3],[36],[37]. Doxycycline-induced expression of Lyn^WT-GFP, Lyn^G2A-GFP, and Lyn^G2P-GFP was confirmed by Western blot, MS, and fluorescence microscopy (Supplementary Figs. 7d, e; 8a and Supplementary Data 6). […]
Fig. 6 N-terminal glycine mutation abolishes DCAF10-dependent stability and ubiquitination. a DLD-1 Flp-In T-REx cells and Lyn KO cells expressing Lyn^WT-GFP, Lyn^G2A-GFP, or Lyn^G2P-GFP were induced for 24 h with 100 ng/mL doxycycline. […] Filled circles represent siRNA treatment, empty circles untreated. b WB quantifications of Lyn levels normalized to vinculin. […] Lysates have been treated with NMT1/2 RNAi for 72 h. i Quantification of in vitro ubiquitination assays. […]

[2] = tested on: DLD-1 Lyn KO Flp-In T-REx cells; assay: Direct ubiquitin blot of Lyn-GFP immunoprecipitates; format: cell-based, human; conditions: anti-GFP IP, anti-Ub blot, n = 3
Method: Fig. 6 N-terminal glycine mutation abolishes DCAF10-dependent stability and ubiquitination. a DLD-1 Flp-In T-REx cells and Lyn KO cells expressing Lyn^WT-GFP, Lyn^G2A-GFP, or Lyn^G2P-GFP were induced for 24 h with 100 ng/mL doxycycline. Cells were treated with NMT1/2 siRNA, DCAF10 siRNA, or both (or left untreated) for 72 h. Representative WBs are shown. Filled circles represent siRNA treatment, empty circles untreated. b WB quantifications of Lyn levels normalized to vinculin. Purple: untreated with NMT1/2 siRNA; blue: treated with NMT1/2 siRNA. Mean ± s.d. with individual data points are shown (n = 3 independent biological replicates). c Schematic of ubiquitination experiments. Created in BioRender. […] Lysates have been treated with NMT1/2 RNAi for 72 h. i Quantification of in vitro ubiquitination assays. Mean ± s.d. with individual data points are shown (n = 3 independent ubiquitination assays). Volcano plots of Lyn-GFP^WT binding partners: j NMT1/2 siRNA ± doxycycline (Dox); k Control ± doxycycline; l NMT1/2 siRNA vs. control both with doxycycline. The −log10 adjusted p-value (two-sided Student’s t test with permutation-based multiple-testing correction; y-axis) is plotted against the log2 fold change (x-axis). […]
We next assessed the role of the Lyn Nt-residue for ubiquitination by performing two complementary experimental set-ups (Fig. 6c). […]

Molecule | Dependency on NMT1/2 and DCAF10 (in words) [1] | Ubiquitination in cells (in words) [2]
B1 | did not show such dependency; also recorded: slight increase after DCAF10 depletion, independently of NMT1/2 | no detectable ubiquitination
B2 | did not show such dependency | no detectable ubiquitination

From PMC12775124, “CUL4A-DDB1-DCAF10 is an N-recognin for N-terminally acetylated Src kinases” (Nature Communications, 2026)
